From paper PMC6351033 come the findings set out here.

The assay concerns the target CXCR3 chemotactic receptor (human (endogenous in PBMC)) (UniProt P49682).
UniProt P49682, sequence (P49682 whole entry): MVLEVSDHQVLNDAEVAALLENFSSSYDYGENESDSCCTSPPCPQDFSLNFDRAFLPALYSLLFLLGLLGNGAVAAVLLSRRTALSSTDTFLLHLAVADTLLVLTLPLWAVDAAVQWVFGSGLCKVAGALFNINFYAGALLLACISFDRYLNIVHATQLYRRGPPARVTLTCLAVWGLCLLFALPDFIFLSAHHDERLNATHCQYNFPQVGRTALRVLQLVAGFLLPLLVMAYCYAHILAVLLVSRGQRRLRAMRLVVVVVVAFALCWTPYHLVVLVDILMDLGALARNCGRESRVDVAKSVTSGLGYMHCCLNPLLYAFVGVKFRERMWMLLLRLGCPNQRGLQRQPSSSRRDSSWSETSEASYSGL

Take “Tag7-Mts1 complex (from UniProt O75594 22-196; P26447 1-101)”: the chemotaxis of PBMC (Boyden chamber, Tag7-Mts1 at 10^-9 M) after preincubation of the cells with antibodies to CXCR3; reduction of migration was < 20%.
